# Data published in the supplement of paper PMC12042874.
# ± gives the uncertainty stated by the source.
# Assay: amyloid nucleation score (Sup35N fusion, yeast selection) (log enrichment); library NNK1; higher = more nucleation; inactive = no reads after selection
# In short: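 Yeast lacking psi expressed peptides of 20 random codons fused to Sup35N, received 100 μM copper sulfate for 24 hours, and were then grown for 7 days at 30°C on medium lacking adenine and uracil. Illumina sequencing of input and output plasmid inserts provided the reads. Nucleation scores are DiMSum log enrichments of output over input, centred on the mode of non-aggregating sequences. Any sequence with under 100 input reads was excluded.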
row,Substance,amyloid nucleation score
1,KLIYLMGPIPWVLRSCWQVF,0.208 ± 0.37
2,KLSGFKFEVTCDGHEFWGHP,1.08 ± 0.54
3,KLSSKWTRACRHNSC,-0.134 ± 1.3
4,KLVVKWRGFLEDGDRTLWLV,3.49 ± 0.13
5,KMFVIVWCDFDAGALGATVN,-0.488 ± 0.58
6,KMKSEDT,1.07 ± 0.25
7,KMLNISGDTMWYVILVLRYV,-0.292 ± 0.56
8,KMTCSPSH,0.867 ± 0.88
9,KNCPALRSFSSKDSSSFVWS,-0.23 ± 0.43
10,KNPLVIKKRF,0.204 ± 0.59
11,KNWARIMRNRNYSVSAILW,0.163 ± 0.61
12,KPGFYT,-0.705 ± 0.92
13,KPKCNHRDRTSLEILRNNAL,1.35 ± 0.43
14,KPLCLNYKCLYIILVCVGDP,0.151 ± 0.27
15,KQCGVKWFMAG,0.437 ± 1.4
16,KREKEYFNERLPTDLSLQRC,-1.21 ± 0.66
17,KRGLAVLGAPKQMQTACWGQ,0.229 ± 0.83
18,KRIVCMFSWPSLT,-0.921 ± 0.88
19,KRSNSFL,0.319 ± 0.27
20,KRTESKLDYFKVRLCRTRFS,0.122 ± 0.43
21,KRTLYSSIRF,1.74 ± 0.15
22,KSLVNNCDSVIAL,0.506 ± 0.25
23,KSRFSDGGSSWFCGTFMFYT,-0.723 ± 0.42
24,KSRRSCQQLIIVKHVVHARR,4.08 ± 0.061
25,KSSGALDMFSDTNMV,-0.894 ± 0.39
26,KSTLVKHLNQYYRLVLMGPL,1.1 ± 0.54

row,Substance,amyloid nucleation score
1,KSTSYNLIDIMAGSSLTNNR,0.274 ± 0.28
2,KSTTYKNLPSHGLRNSICTK,0.842 ± 0.69
3,KSYNWDYGHLRVNYGGHMMI,-0.544 ± 1.4
4,KSYYGSLNLAMSTSLYIQTM,0.769 ± 0.34
5,KTFTNGLCDPDVYGTIWAM,0.488 ± 0.36
6,KTFVPWISCATSIEVFYVAS,1 ± 0.54
7,KTGCVGTS,inactive
8,KTLSLLIL,0.387 ± 0.37
9,KTTLCM,-0.088 ± 0.39
10,KTWLIG,0.109 ± 0.54
11,KTWRHSFLYFLTGIESRKGA,0.094 ± 0.26
12,KVALESSRAV,0.036 ± 0.88
13,KVASSDMSDLSTH,inactive
14,KVFGTRPSQCLGFN,-0.806 ± 0.65
15,KVFISCYLWYA,3.8 ± 0.072
16,KVIRVYRADCCFTGWHFAVA,-0.224 ± 0.77
17,KVISFYS,3.21 ± 0.083
18,KVLITCCGPKWSCSLAPDEL,0.668 ± 0.58
19,KVLLIRWDLLC,0.291 ± 0.46
20,KVLNILYWGRTDVG,1.41 ± 0.33
21,KVLNVCRL,inactive
22,KVLSIRWECPLECFALQSYV,0.042 ± 0.32
23,KVLSYWDVSWGMASRFVSCY,0.724 ± 0.49
24,KVPYLVDYISLVFFVFKVLF,-0.388 ± 0.34
25,KWNLGYIYMYRATIK,1.44 ± 0.84
26,KWQEQGVIFSNFLLHRHWDV,-1.23 ± 1.6

row,Substance,amyloid nucleation score
1,KYDRNFNTRWGTKDVWTLAD,-0.065 ± 0.57
2,KYGEVLLVTYTNP,0.577 ± 0.53
3,KYKFVRANLILFGMVRG,-0.115 ± 0.25
4,KYSLNM,-0.872 ± 1.4
5,LAFDYLLKFLDCR,-0.47 ± 0.53
6,LAFTCFH,0.568 ± 0.28
7,LAGMMHAPVVLGLWSCDGDG,-0.974 ± 2.4
8,LAGMTSKHFTLRMMSHLDSY,0.043 ± 1
9,LAHLCINIVSKCSNSWTIGT,0.55 ± 0.57
10,LALVRVIGDKNRWWRILSVW,0.708 ± 0.58
11,LAMLSNGSFNGLFLLWSRCH,0.525 ± 0.35
12,LANIYSSNVDISFFDPYCST,4.35 ± 0.085
13,LANLAVHLLGQGETCIQMFL,1.76 ± 0.4
14,LAPISSASLQTFPVAIFRFR,0.122 ± 0.43
15,LARDRFTYLAASYPFTPSRA,-0.761 ± 1.7
16,LARLLNGQVGNDYCPGVPGG,-0.543 ± 0.4
17,LAWMWYQGVSLRNKGGGMFY,-0.659 ± 1
18,LAWTSRDWRKFEYIMGIWGI,-1.01 ± 2.4
19,LAWYFTPFVDHS,1.13 ± 0.84
20,LCARFWDCRFKVQ,0.142 ± 1.4
21,LCDDHRPELCVYIVWTVVGE,3.19 ± 0.22
22,LCELNSKAVYGSKMAHCYSS,-0.151 ± 0.33
23,LCGTSGCSIRNLV,0.026 ± 0.46
24,LCKIKESNDLFSARSIVAHQ,1.06 ± 0.59
25,LCLDKQSSCGSMMSGIYDLM,-0.064 ± 0.28
26,LCMLWLKVKRHRDMRSIGIW,-0.003 ± 0.42

row,Substance,amyloid nucleation score
1,LCPGNMLLLITDQYSNWEEI,0.068 ± 0.3
2,LCQSYGCFVPYYLYDFHRVV,6.521 ± 0.059
3,LCRVVGYRSPHWQVRGLSVV,-0.215 ± 1.7
4,LCSLVFTIRRTPPWVQSMLR,0.096 ± 0.8
5,LCSWADLDNKDLKSPR,0.102 ± 0.43
6,LCVEVS,0.369 ± 0.42
7,LCVSCARVKLLNRT,-0.144 ± 0.55
8,LCWFWGYVISYREMIYAESV,inactive
9,LDDWRVMLVSANMHHVRC,-0.642 ± 0.39
10,LDEYINNEDSMFLCGILLSS,0.2 ± 0.3
11,LDFRGMALENKVLDFRVCSV,0.658 ± 0.3
12,LDIVWVDSVIVISLMMLTYC,0.199 ± 0.39
13,LDLNRFDPWVVTSLLCFPVA,-1.42 ± 1.5
14,LDRFCYLVYRRRCGYSRWQM,0.527 ± 0.39
15,LDRLMESGDFGWKYIMG,inactive
16,LDRVSWSDRKSNGQ,1.44 ± 0.41
17,LDTRSRSYVWSDLLRKAKAK,0.795 ± 0.6
18,LDVFICTADHTVRYLHHTAV,1.08 ± 0.66
19,LDVLWTGSRSAAA,-0.05 ± 0.38
20,LDVNLGYCHVVYWTIVKVRL,inactive
21,LEAMPMCGEELRSLYTMVNV,0.552 ± 0.42
22,LEDNMEFDFKSRKDSNLCNG,0.611 ± 0.34
23,LEGKPSEFYRNFHIYGVVYQ,-0.531 ± 1.4
24,LEINIVACVDTA,-0.559 ± 0.36
25,LESRFRKMFPRVVRDTWGRG,-0.628 ± 1.7
26,LEWANDLVNCSQRIM,-0.331 ± 0.88

row,Substance,amyloid nucleation score
1,LEYENCHCIILYLKHAQYLL,inactive
2,LEYSS,-0.145 ± 0.41
3,LEYYLVWYNVYL,0.534 ± 0.19
4,LFASESRWSRRYMFPWCRLC,-0.445 ± 0.91
5,LFFQANKLLVIYNCRIYTTF,6.32 ± 0.07
6,LFFQSDMFGVFCISYTTGVS,0.323 ± 0.32
7,LFGTS,0.501 ± 0.51
8,LFIFFKV,0.049 ± 0.51
9,LFKFYCKTYHTPLSLIYPFW,inactive
10,LFLFLRMLTFVTCLIMRLRV,-1.73 ± 2.4
11,LFLGLPELVQNSLDMLVSLW,0.217 ± 0.31
12,LFLWDVFGQLAFVRVGTICW,1.14 ± 0.56
13,LFMLSIHFGVHILSRLW,1.57 ± 0.16
14,LFMNCLILRMFTCAFHNSSE,6.39 ± 0.078
15,LFNKNGYNSETRFLFKLGFD,1.02 ± 0.56
16,LFNMFDQITCIVDSDNYRHA,0.116 ± 0.25
17,LFNWVTSCSGTINGWKIKRH,3.08 ± 0.12
18,LFQCASWM,-0.024 ± 0.29
19,LFRGFWSERSTVSMLFRSRR,-0.124 ± 0.83
20,LFRLIAFWDWLYSWNRFFGW,0.481 ± 0.43
21,LFRSRRLVCDMKFHWTFLYR,-0.853 ± 0.5
22,LFSWVCIFECLPFKNWSQTV,inactive
